Data: US8987192B2, “Potent and selective mediators of cholesterol efflux” (The Regents of the University of California, priority 2006, dated 2015)
“Also recorded” adds a separate entry of the source.

Target: ABCA1 (Mus musculus, UniProt P41233)
Test: Cholesterol efflux from [3H]cholesterol-labeled ABCA1-expressing J774 mouse macrophages
Type: cell-based
Parameters: to upregulate cellular ABCA1 protein; endogenous in cells; host or cells: J774 mouse macrophages
Conditions: for ABCA1-dependent cholesterol efflux: macrophages with vs without cAMP; for cholesterol efflux from macrophages not induced for ABCA1 (non-specific): no cAMP; for capacity to stimulate cholesterol efflux at 3 μg/ml: 3 μg/ml lipid-free peptide, ABCA1-expressing macrophages; for efficiency of ABCA1 cholesterol efflux (concentration dependence): concentration dependence curves; for ABCA1-dependent cholesterol efflux at 30 μg/ml: 30 μg/ml peptide
Protocol: In some embodiments, a polypeptide known to mediate cholesterol efflux (e.g., helix 9/10 of Apo A-I) is used to screen for additional mediators of cholesterol efflux in a cell based assay. For example, cell lines in which cholesterol efflux can be enhanced using a cAMP analog that up-regulates ABCA1 protein expression (e.g., J774 macrophages) can conveniently be used to assess the ability of a polypeptide of the present invention to mediate cholesterol efflux. The cells are incubated with labeled cholesterol (e.g., [^3H]cholesterol) under conditions appropriate for cholesterol uptake by the cells. Thus, cAMP or cAMP analogs (e.g., CPT-cAMP) are incubated with the cells for a suitable time before the initiation of cellular cholesterol efflux, i.e., prior to contacting the cells with a test polypeptide. Measurement of labeled cholesterol appearing in the medium is used to determine the cholesterol efflux mediating activity of the test polypeptide.
J774 mouse macrophages labeled with [^3H]cholesterol were treated (20 h) with 22-hydroxycholesterol (10 μM)/cis-retinoic acid (10 μM) to upregulate cellular ABCA1 protein.
Mouse macrophages were labeled with [^3H]cholesterol and treated with a cAMP analog to induce ABCA1 expression. […] Km values were calculated using the Michaelis-Menton equation and GraphPad Prism4 software.
Inverted sequence peptides synthesized with all L-amino acids and all D-amino acids were tested for cholesterol efflux activity using ABCA1 expressing J774 macrophages.
Two peptide analogs were engineered; the first replacing glutamic acid residues (E) at position 8 and 15 with aspartic acid residues (D), i.e., E8, 15>D polypeptides, and the second, replacing E1, 7, 8, 15, 18, 19 with D, i.e., all D (Asp) polypeptide. Cholesterol efflux activity was determined using J774 macrophages treated with and without a cAMP analog to modulate ABCA1 expression.
The impact of the A12>L substitution was also tested for activity, which also expanded non-polar surface area.
1-palmitoyl-2-oleoyl-phosphatidylcholine (POPC) was used to evaluate the cholesterol efflux properties of a formulated polypeptide of the present invention. […] To test cholesterol efflux activity, J774 mouse macrophages were labeled with [^3H]cholesterol and treated with and without cAMP to modulate ABCA1 expression.

Chain of ABCA1 (P41233 whole entry): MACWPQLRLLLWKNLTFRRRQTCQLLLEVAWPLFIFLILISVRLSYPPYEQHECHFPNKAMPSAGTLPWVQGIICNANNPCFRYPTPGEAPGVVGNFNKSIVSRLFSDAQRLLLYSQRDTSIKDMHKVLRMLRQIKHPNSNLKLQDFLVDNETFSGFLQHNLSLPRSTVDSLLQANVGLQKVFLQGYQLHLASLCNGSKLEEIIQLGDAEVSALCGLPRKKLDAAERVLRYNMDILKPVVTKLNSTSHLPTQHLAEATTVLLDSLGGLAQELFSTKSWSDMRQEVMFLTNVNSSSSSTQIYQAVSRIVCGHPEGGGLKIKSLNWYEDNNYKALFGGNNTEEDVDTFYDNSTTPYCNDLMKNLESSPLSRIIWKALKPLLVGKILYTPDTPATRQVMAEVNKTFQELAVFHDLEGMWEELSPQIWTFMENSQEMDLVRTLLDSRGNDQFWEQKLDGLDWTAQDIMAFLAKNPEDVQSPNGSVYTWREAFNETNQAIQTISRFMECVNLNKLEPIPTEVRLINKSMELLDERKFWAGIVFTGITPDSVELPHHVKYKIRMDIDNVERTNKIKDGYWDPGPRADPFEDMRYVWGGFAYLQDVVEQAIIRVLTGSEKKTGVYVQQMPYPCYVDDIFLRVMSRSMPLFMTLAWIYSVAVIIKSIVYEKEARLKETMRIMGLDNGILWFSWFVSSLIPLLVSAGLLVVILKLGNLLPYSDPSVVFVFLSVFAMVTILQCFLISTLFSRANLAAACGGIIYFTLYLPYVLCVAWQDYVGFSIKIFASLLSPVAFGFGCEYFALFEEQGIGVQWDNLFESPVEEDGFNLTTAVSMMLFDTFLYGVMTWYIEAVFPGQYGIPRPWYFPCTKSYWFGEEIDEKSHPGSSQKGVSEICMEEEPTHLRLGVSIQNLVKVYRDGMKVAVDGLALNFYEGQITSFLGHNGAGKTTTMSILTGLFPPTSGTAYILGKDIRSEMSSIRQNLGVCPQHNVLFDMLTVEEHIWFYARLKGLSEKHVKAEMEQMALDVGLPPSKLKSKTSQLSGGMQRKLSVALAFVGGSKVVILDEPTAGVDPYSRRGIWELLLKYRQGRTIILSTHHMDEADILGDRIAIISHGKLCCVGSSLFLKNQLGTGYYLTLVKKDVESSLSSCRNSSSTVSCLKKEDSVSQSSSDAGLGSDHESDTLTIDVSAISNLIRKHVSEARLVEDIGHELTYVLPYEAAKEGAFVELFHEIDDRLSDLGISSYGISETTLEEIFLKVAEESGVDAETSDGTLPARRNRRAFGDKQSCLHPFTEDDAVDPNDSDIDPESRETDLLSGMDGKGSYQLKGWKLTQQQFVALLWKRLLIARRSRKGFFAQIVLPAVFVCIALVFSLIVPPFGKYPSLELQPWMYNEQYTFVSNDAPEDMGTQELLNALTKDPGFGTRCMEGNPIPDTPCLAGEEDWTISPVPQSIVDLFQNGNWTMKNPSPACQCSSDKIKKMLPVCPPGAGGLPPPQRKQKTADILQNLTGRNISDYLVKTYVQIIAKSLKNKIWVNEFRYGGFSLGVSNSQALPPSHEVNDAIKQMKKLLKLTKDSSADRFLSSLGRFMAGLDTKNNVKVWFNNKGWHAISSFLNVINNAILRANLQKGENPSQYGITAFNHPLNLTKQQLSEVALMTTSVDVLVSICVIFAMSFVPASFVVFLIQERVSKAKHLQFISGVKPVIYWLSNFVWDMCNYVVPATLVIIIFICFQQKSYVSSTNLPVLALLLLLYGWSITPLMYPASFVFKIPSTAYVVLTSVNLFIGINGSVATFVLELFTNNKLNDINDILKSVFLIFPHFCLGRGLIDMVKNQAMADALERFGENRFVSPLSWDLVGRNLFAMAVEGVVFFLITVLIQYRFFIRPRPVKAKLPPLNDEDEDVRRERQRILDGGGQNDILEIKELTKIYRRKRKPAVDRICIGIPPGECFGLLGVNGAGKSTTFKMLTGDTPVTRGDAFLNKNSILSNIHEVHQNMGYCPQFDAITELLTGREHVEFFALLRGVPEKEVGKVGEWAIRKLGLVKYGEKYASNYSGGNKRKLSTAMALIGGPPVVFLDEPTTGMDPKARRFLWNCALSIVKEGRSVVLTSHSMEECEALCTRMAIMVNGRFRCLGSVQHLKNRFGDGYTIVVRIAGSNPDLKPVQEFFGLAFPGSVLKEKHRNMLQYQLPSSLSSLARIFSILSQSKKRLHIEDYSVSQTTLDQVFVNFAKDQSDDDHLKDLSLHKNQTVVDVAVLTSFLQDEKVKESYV

S4, 26>A: SEQ ID NO:4 with serine to alanine substitutions at positions 4 and 26 (EVRAKLEEWFAAFREFAEEFLARLKA; ATI-5261 amphipathic alpha-helix polypeptide core sequence selectively binds HDL, high-affinity ligand for ATP-binding cassette transporter A1 (ABCA1), ABCA1-lipid cholesterol efflux, ABCA1-stablization, anti-oxidant and anti- inflammatory activity)
ABCA1-dependent cholesterol efflux: retained ABCA1-dependent cholesterol efflux activity

R3, 14, 23→K3, 14, 23: SEQ ID NO:5 with lysine in place of arginine at positions 3, 14 and 23 (EVKSKLEEWFAAFKEFFEEFLAKLKS; S1 amphipathic alpha-helix polypeptide core sequence selectively binds HDL, high-affinity ligand for ATP- binding cassette transporter A1 (ABCA1), ABCA1-lipid cholesterol efflux, ABCA1-stablization, anti-oxidant and anti-inflammatory activity)
ABCA1-dependent cholesterol efflux: stimulated ABCA1 cholesterol efflux | cholesterol efflux from macrophages not induced for ABCA1 (non-specific): Low efflux

E8, 15→Q8, 15: SEQ ID NO:5 with two glutamate residues replaced with glutamine (EVRSKLEQWFAAFRQFFEEFLARLKS; S1 amphipathic alpha-helix polypeptide core sequence selectively binds HDL, high-affinity ligand for ATP- binding cassette transporter A1 (ABCA1), ABCA1-lipid cholesterol efflux, ABCA1-stablization, anti-oxidant and anti-inflammatory activity)
cholesterol efflux from macrophages not induced for ABCA1 (non-specific): further augmented

EVRSKLEEWFAAFREFFEEFLARL (amphipathic alpha-helix polypeptide core sequence selectively binds HDL, high-affinity ligand for ATP- binding cassette transporter A1 (ABCA1), ABCA1-lipid cholesterol efflux, ABCA1-stablization, anti-oxidant and anti-inflammatory activity) [24-mer]
capacity to stimulate cholesterol efflux at 3 μg/ml: retained high capacity to stimulate cholesterol efflux; also recorded: retained high activity | efficiency of ABCA1 cholesterol efflux (concentration dependence): high efficience | ABCA1-dependent cholesterol efflux: stimulated cholesterol efflux in an ABCA1-dependent manner

E1, 7, 8, 15, 18, 19>D: SEQ ID NO:5 with E1, 7, 8, 15, 18, 19 replaced with D (DVRSKLDDWFAAFRDFFDDFLARLKS; S1 amphipathic alpha-helix polypeptide core sequence selectively binds HDL, high-affinity ligand for ATP- binding cassette transporter A1 (ABCA1), ABCA1-lipid cholesterol efflux, ABCA1-stablization, anti-oxidant and anti-inflammatory activity)
ABCA1-dependent cholesterol efflux: retained high capacity to stimulate cholesterol efflux in an ABCA1-dependent manner

A12>L: A12>L substitution analogs of SEQ ID NO:4 (EVRSKLEEWFALFREFAEEFLARLKS; ATI-5261 amphipathic alpha-helix polypeptide core sequence selectively binds HDL, high-affinity ligand for ATP-binding cassette transporter A1 (ABCA1), ABCA1-lipid cholesterol efflux, ABCA1-stablization, anti-oxidant and anti- inflammatory activity)
ABCA1-dependent cholesterol efflux: stimulated cholesterol efflux from macrophages in an ABCA1-dependent manner

18-mer: SEQ ID NO:5 truncated from the C-terminal end to 18 residues (EVRSKLEEWFAAFREFFE; S1 amphipathic alpha-helix polypeptide core sequence selectively binds HDL, high-affinity ligand for ATP- binding cassette transporter A1 (ABCA1), ABCA1-lipid cholesterol efflux, ABCA1-stablization, anti-oxidant and anti-inflammatory activity)
capacity to stimulate cholesterol efflux at 3 μg/ml: weakly active

R3, 14, 23→Q3, 14, 23: SEQ ID NO:5 with arginines 3, 14, 23 changed to glutamine (EVQSKLEEWFAAFQEFFEEFLAQLKS; S1 amphipathic alpha-helix polypeptide core sequence selectively binds HDL, high-affinity ligand for ATP- binding cassette transporter A1 (ABCA1), ABCA1-lipid cholesterol efflux, ABCA1-stablization, anti-oxidant and anti-inflammatory activity)
efficiency of ABCA1 cholesterol efflux (concentration dependence): reduced efflux efficiency | ABCA1-dependent cholesterol efflux: greatly reduced efflux capacity

R3>F: SEQ ID NO:4 polypeptides with arginine at position 3 replaced by phenylalanine (EVFSKLEEWFAAFREFAEEFLARLKS; ATI-5261 amphipathic alpha-helix polypeptide core sequence selectively binds HDL, high-affinity ligand for ATP-binding cassette transporter A1 (ABCA1), ABCA1-lipid cholesterol efflux, ABCA1-stablization, anti-oxidant and anti- inflammatory activity)
ABCA1-dependent cholesterol efflux: relatively high-levels of cholesterol efflux | cholesterol efflux from macrophages not induced for ABCA1 (non-specific): low-levels of cholesterol efflux

22-mer: SEQ ID NO:5 truncated from the C-terminal end to 22 residues (EVRSKLEEWFAAFREFFEEFLA; S1 amphipathic alpha-helix polypeptide core sequence selectively binds HDL, high-affinity ligand for ATP- binding cassette transporter A1 (ABCA1), ABCA1-lipid cholesterol efflux, ABCA1-stablization, anti-oxidant and anti-inflammatory activity)
capacity to stimulate cholesterol efflux at 3 μg/ml: weakly active

EFRSKLEEWFAAFREFFEEFLARLKS (S2 amphipathic alpha-helix polypeptide core sequence selectively binds HDL, high-affinity ligand for ATP- binding cassette transporter A1 (ABCA1), ABCA1-lipid cholesterol efflux, ABCA1-stablization, anti-oxidant and anti-inflammatory activity) [SEQ ID NO:6]
cholesterol efflux efficiency/potency on per molecule (molar) basis versus apolipoproteins (Km in molar units): activity similar to full-length Apo A-I, Apo E, and the C-terminal (CT) domain of Apo E

SKLRALFEEAFERFAAFWEELKSRVE (inverted peptide, ATI-5261 in reverse order)
ABCA1-dependent cholesterol efflux at 30 μg/ml: stimulated cholesterol efflux in an ABCA1-dependent manner

R23→Q: SEQ ID NO:5 with arginine 23 replaced by glutamine (EVRSKLEEWFAAFREFFEEFLAQLKS; S1 amphipathic alpha-helix polypeptide core sequence selectively binds HDL, high-affinity ligand for ATP- binding cassette transporter A1 (ABCA1), ABCA1-lipid cholesterol efflux, ABCA1-stablization, anti-oxidant and anti-inflammatory activity)
ABCA1-dependent cholesterol efflux at 30 μg/ml: mediated cholesterol efflux in an ABCA1 dependent manner | efficiency of ABCA1 cholesterol efflux (concentration dependence): high efficiency

23-mer: SEQ ID NO:5 with three residues deleted from the C-terminal end (EVRSKLEEWFAAFREFFEEFLAR; S1 amphipathic alpha-helix polypeptide core sequence selectively binds HDL, high-affinity ligand for ATP- binding cassette transporter A1 (ABCA1), ABCA1-lipid cholesterol efflux, ABCA1-stablization, anti-oxidant and anti-inflammatory activity)
capacity to stimulate cholesterol efflux at 3 μg/ml: weakly active
